Test results: patent US20070286858A1 (Pfizer, published 2007)

Key:
[1] = target: T1, cynomolgus monkey RAGE (cynomolgus monkey (Macaca fascicularis), UniProt Q15109 23-404 (human entry)); assay: IHC, normal monkey lung, 5 µg/ml
T1 construct: On transfected 293 cells or endogenous in monkey lung sections; also called 293-cyno monkey RAGE; RAGE in monkey lung
T1 chain: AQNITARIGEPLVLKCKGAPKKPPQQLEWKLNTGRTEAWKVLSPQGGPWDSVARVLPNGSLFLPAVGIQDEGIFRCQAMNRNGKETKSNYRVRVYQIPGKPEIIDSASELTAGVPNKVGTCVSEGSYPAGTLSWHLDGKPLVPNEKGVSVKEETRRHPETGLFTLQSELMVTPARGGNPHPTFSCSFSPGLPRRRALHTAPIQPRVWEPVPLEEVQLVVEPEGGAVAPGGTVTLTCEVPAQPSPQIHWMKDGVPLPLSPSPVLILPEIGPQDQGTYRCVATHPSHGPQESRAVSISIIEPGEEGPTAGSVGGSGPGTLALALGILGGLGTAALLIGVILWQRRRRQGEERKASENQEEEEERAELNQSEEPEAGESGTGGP
Description: (§1) Immunohistochemistry for RAGE lung tissues isolated from baboon, cynomolgus monkey, rabbit or Chinese Hamster Ovary cells over-expressing human RAGE or control CHO cells were performed using standard techniques. RAGE antibodies and rat IgG2b isotype control or mouse isotype control were used at […]. […] Following detection with HRP and Alexa Fluor 594, Alexa Fluor 488 or anti-biotin conjugated with FITC, sections were also stained with 4′-6-Diamidino-2-phenylindole (DAPI).
(§2) CHO cells stable transfected with an expression vector that expresses DNA encoding hRAGE is used as a positive control.

[2] = target: T2, baboon RAGE (baboon (Papio cyanocephalus), UniProt Q15109 23-404 (human entry)); assay: IHC, septic baboon lung, 1 µg/ml
T2 construct: On transfected 293 cells or endogenous in baboon lung sections; also called 293-baboon RAGE; RAGE in baboon lung
T2 chain: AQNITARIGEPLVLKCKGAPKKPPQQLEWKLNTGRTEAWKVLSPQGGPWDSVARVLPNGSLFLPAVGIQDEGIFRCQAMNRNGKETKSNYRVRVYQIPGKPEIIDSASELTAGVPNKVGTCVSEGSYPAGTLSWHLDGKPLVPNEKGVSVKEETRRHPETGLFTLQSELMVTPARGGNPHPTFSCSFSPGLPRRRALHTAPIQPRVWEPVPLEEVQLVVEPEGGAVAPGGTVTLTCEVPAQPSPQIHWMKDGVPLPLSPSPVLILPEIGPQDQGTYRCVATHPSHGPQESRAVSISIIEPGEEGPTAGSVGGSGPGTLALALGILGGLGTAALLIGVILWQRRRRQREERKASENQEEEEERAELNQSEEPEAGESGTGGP
Description: as §1, §2

[3] = target: T3, human RAGE, full length (human, UniProt Q15109 23-404); assay: IHC, CHO cells expressing hRAGE, 1 µg/ml
T3 construct: Expressed on 293 or CHO cells, or endogenous in human lung sections; also called hRAGE; cell-surface hRAGE
Description: as §1, §2

[4] = target: T4, murine RAGE, full length (mouse, UniProt Q62151 23-402); assay: FACS, 293 cells infected with murine RAGE adenovirus
T4 construct: Expressed on 293 cells; also called mRAGE; 293-murine RAGE
T4 chain: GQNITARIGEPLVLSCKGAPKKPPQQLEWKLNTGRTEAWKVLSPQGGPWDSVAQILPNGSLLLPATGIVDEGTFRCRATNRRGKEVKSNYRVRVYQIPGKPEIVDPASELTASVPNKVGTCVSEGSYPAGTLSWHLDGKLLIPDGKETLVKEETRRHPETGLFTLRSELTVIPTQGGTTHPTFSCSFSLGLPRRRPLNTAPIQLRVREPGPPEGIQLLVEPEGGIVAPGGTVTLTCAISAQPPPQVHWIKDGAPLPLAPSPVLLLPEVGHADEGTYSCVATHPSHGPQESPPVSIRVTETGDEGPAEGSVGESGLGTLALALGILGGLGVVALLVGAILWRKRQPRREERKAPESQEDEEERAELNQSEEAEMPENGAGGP
Description: Human 293 cells were infected with the human and murine RAGE adenovirus. Infected cells were suspended in PBS containing 1% BSA at a density of 4×10⁴ cells/ml. Cells were incubated with 100 ul of sample (diluted immune sera, hybridoma supernatants or purified antibodies) for 30 min at 4° C. After washing, cells were incubated with PE-labeled goat, anti-mouse, IgG, F(ab′)₂ (DAKO Corporation GlostrupDenmark) for 30 min at 4° C. in the dark. Cell-associated fluorescence signals were measured by a FACScan flow cytofluorometer (Becton Dickinson) using 5000 cells per treatment. Propidium iodide was used to identify dead cells, which were excluded from the analysis.

[5] = target: T5, murine RAGE-strep tag fusion protein (mouse, UniProt Q62151 23-343); assay: ELISA, mRAGE-strep
T5 construct: also called mRAGE-strep; mRAGE-SA
T5 chain: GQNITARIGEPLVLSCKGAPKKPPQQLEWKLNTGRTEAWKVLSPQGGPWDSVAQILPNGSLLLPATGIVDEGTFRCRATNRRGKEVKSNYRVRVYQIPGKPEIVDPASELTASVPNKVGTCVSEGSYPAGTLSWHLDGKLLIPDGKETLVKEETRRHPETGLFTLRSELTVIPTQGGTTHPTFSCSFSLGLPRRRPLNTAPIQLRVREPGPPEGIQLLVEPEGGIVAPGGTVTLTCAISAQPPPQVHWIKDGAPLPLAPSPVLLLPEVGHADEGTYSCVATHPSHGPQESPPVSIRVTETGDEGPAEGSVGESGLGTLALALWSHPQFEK

[6] = target: T6, human RAGE-Fc fusion protein (human, UniProt Q15109 23-344); assay: ELISA, coated hRAGE-Fc
T6 construct: also called hRAGE-Fc; huRAGE-Fc; not shown: Fc domain of human IgG
Description: Antibodies were purified from hybridoma supernatants using standard procedures. Purified antibodies were evaluated for binding to soluble forms of RAGE with the use of ELISA. […] After washing and blocking with PBS containing 1% BSA and 0.05% Tween-20, 100 ul of sample (samples were in several forms: diluted immune serum, hybridoma supernatants, or purified antibodies, as indicated) was added and incubated for 1 hour at room temperature. The plates were washed with PBS, pH 7.2 and bound anti-RAGE antibodies were detected with the use of peroxidase-conjugated goat, anti-mouse IgG (H+L) (IgG) (Pierce, Rockford, Ill.) followed by incubation with the substrate TMB (BioFX Laboratories Owings Mills, Md. Laboratories). Absorbance values were determined at 450 nm in a spectrophotometer. The concentrations of monoclonal antibodies were determined with the use of peroxidase-labeled goat, anti-mouse IgG (Fcγ) (Pierce Rockford, Ill.) and a standard curve was generated by a purified, isotype-matched mouse IgG.

Measured: binding result

B1: XT-H1 (antibody, mouse IgG1, V domains shown)
VH: QVQLKESGPGLVAPSQSLSITCTISGFSITSYGVHWVRQPPGKGLEWLVVIWSDGRTTYNSTLKSRLSISKDNSKSQVFLKMNSLQTDDTAMYYCVRHGGYFPYAMDYWGQGTSVTVSS
VL: DIQMTQSPSSLSTSLGGKVTITCKASQDINKFIAWYQHTPGKGPRLFIYYTSTLQPGIPSRFSGNGSGRDYSFSISNLEPEDIATYYCLQYDNMYTFGGGTKLEIK
notes: also called 1hRAGEP3/6; murine anti-huRAGE monoclonal antibody XT-H1
binds: all assays above
